From patent US20150307628A1

Key:
[1] = molecular target: dummy-Fc heavy chain constant region with CH3B of mutant SW-WVT (S-S) (Y349C/E357W/D399V/F405T) (human) [IgG part: P0DOX5]; assay: non-reducing SDS-PAGE, SW-WVT (S-S) against SW-WVT
[2] = molecular target: dummy-Fc heavy chain constant region with CH3B of mutant EW-RVT (S-S) (Q347R/S354C/D399V/F405T) (human) [IgG part: P0DOX5]; assay: non-reducing SDS-PAGE, EW-RVT (S-S) against EW-RVT

| Substance | greater heterodimer formability than the variant without disulfide bridge [1] [%] | greater heterodimer formability than the variant without disulfide bridge [2] [%] |
| --- | --- | --- |
| hAY4a scFv-Fc heavy chain with CH3A of mutant SW-WVT (S-S) (Y349S/S354C/K409W) (from UniProt P0DOX5 227-449) (Fc fusion) | 9 |  |
| hAY4a scFv-Fc heavy chain with CH3A of mutant EW-RVT (S-S) (Y349C/K360E/K409W) (from UniProt P0DOX5 227-449) (Fc fusion) |  | 3 |
